test: soluble on expression in E. coli; label from the status in PepcDB or PDB records

| Sequence | soluble on expression in E. coli |
| --- | --- |
| MGSDKIHHHHHHMNICDLAPAYIRAISPYQPGKPISELAREMGMDEQSIIKLASNENPLGTSPMALNAMSKALDEVSLYPDGSGFELKAALSERYGVTSDQIVLGNGSNDVLELAARVFLKPGASTVYSQHAFAVYPLVTKAVGGIGISVPARNYGHDLDAMLDAVAPETRVVFIANPNNPTGTLLPADDVLRFLERVSPDVLVVLDEAYNEYLPPALKGDSIAWLKQFPNLLITRTFSKAYGMAGVRVGFGLGHPDVAGLMNRVRQPFNVNNIGLAGAVAALQDEEFVKRSYALNQAGMLQIVTGLRQMGIEYIPSYGNFLSFRVPGNVKAINESLLKQGVIVRPISIYEMPEHLRVTVGLESENEKFLKSLAIALETTEGAAADTIPEMAVSFPKVASGGTA | not soluble |
| MYKLIAIDMDGTLLNDHHEVTEEVRDALHAAKAEGVKIVLCTGRPIGGVQRYLDELNLIEEGDYVIAYNGALVQNTHTNEVVSELSLGYDDLTSLYDLSLELKTPMHFFDSSNLYTPNRDISEFTVYESYVTQVPLHFRKIDEVPKDILIPKVMFIDKPENLSRVITSIPKDVREKYTMVRSAPFFYEILHSEASKGNAVRQLAQLLGIEQAEVMCIGDNGNDLTMIEWAGCGVAMANAIPEVLEAANFQTRSNNEHGVAHAIHELVLAKLEHHHHHH | soluble |
| MSLKKINFGIVGLGRLGRAHAENLAFKIPNANLLAVCSIDKSQVDEVQKAWNIPYGYTDFDEMLKNKELDAIFIASPSGFHCEQIEKALDAGFHVFSEKPLGLYLDDAVRAMKAVNSHPNQIFMLGFMRRYDKSYAYAKKKIEEGAIGKPVLVRCYGLDPAKALPSFLKFAKDSYSGGLFLDMAIHDIDLARWYLDSEADELWAIGGAYGHKEFDEINDAETGAAMVKFKNGTMALLVAGRNCAHGYHIETEIIGTEGTLRIGTTPDKNLVTVFDSRGVNKECAGGFLERFEDAYLAEVKEFVDCVLENRKPAVTVEDGVLSTIVGYACKESFETGELVKVNYEGYDKLIKEGHHHHHH | soluble |
| MIPEEIYKILRKQRYQIDGHTAVKLCGWVRKKMLEDKNCYKSKFYGIETHRCIQCTPSVIWCQQNCIFCWRVLPRDIGIDISQIKEPKWEEPEVVYEKILAMHKRIIMGYAGVLDRVGEKKFKEALEPKHVAISLSGEPTLYPYLDELIKIFHKNGFTTFVVSNGILTDVIEKIEPTQLYISLDAYDLDSYRRICGGKKEYWESILNTLDILKEKKRTCIRTTLIRGYNDDILKFVELYERADVHFIELKSYMHVGYSQKRLKKEDMLQHDEILKLAKMLDENSSYKLIDDSEDSRVALLQNENRKINPKL | soluble |
| MDIWVNLLSDRLESPNFEFITDFIGGKCVVQKDYLEDEKSQSSSGWLLHVYFRPEEFLDRPFVADIIFRCGTRRREVFSVLLKNDCFFAHMRVKEKTGRLIIAARIRKMLCELDLSKPSGSRQFVVQNFENQLKDGRIFYVNLAKLGQIGGDLFKKWQTVENVQQLSLANETMENRMIEVLMEATAKYDDIVVIRHSFHRLIQLAQTYRMHKLMRVIEENLSETKLMNWDEKILLALQYRMSQLYVQVQRKYLLTPWNILCRIQRLYLSNYAAKSGNASNPYDMIHKNLMQMVMMSDENICIG | not soluble |
| MASLSDQSGSIGSEQTRPSGAIPVESLPPQALEQLIASLQQEVEQLADALQQLNFANQRWTLCKQSIEAFAEETTRVDLPGAQSRATDAISSTASAKPETSVEVNQNQRLLVPLSRSLYVLGRVINPERCLIDIGTGYHVERKLADAAEFFDRRLKHVRGSMRQLTLKIDQNQQQMQTIREILVRKLAGAQQAAEHT | not soluble |
| MGHHHHHHSHMANSMANSMIRNKVMEQSFIEYSLGKDASSAVLWVYPARKPRGKAIIMCPGGGFNQIASDHEGRDFAAWFNNQGITYAVLNYRMPHGDVEVIREDIREAIRLIRRQSAEWGIHQLGVMGASIGGYIAATAATLYTGTDRPDFQVLLYPVISMTDRLTHWPSRERMLGETISEGLKETLSLELHVTADTPPTFIVLAEDDQAVSPLNSIVYYTALLKHGVSAGLHIYPEGGHSFGFRDSFIYKELWTDELQKWLLTF | soluble |
| MRQSTLHTRLSTGPGGSMRSSIEIFNIRTRKMRVVWQTPELFEAPNWSPDGKYLLLNSEGLLYRLSLAGDPSPEKVDTGFATICNNDHGISPDGALYAISDKVEFGKSAIYLLPSTGGTPRLMTKNLPSYWHGWSPDGKSFTYCGIRDQVFDIYSMDIDSGVETRLTHGEGRNDGPDYSPDGRWIYFNSSRTGQMQIWRVRVDGSSVERITDSAYGDWFPHPSPSGDKVVFVSYDADVFDHPRDLDVRVQLMDMDGGNVETLFDLFGGQGTMNSPNWSPDGDEFAYVRYFPVE | soluble |
| MIYEGKAITVTALESGIVELKFDLKGESVNKFNRLTLNELRQAVDAIKADASVKGVIVSSGKDVFIVGADITEFVENFKLPDAELIAGNLEANKIFSDFEDLNVPTVAAINGIALGGGLEMCLAADFRVMADSAKIGLPEVKLGIYPGFGGTVRLPRLIGVDNAVEWIASGKENRAEDALKVSAVDAVVTADKLGAAALDLIKRAISGELDYKAKRQPKLEKLKLNAIEQMMAFETAKGFVAGQAGPNYPAPVEAIKTIQKAANFGRDKALEVEAAGFAKLAKTSASNCLIGLFLNDQELKKKAKVYDKIAKDVKQAAVLGAGIMGGGIAYQSASKGTPILMKDINEHGIEQGLAEAAKLLVGRVDKGRMTPAKMAEVLNGIRPTLSYGDFGNVDLVVEAVVENPKVKQAVLAEVENHVREDAILASNTSTISISLLAKALKRPENFVGMHFFNPVHMMPLVEVIRGEKSSDLAVATTVAYAKKMGKNPIVVNDCPGFLVNRVLFPYFGGFAKLVSAGVDFVRIDKVMEKFGWPMGPAYLMDVVGIDTGHHGRDVMAEGFPDRMKDDRRSAIDALYEAKRLGQKNGKGFYAYEADKKGKQKKLVDSSVLEVLKPIVYEQRDVTDEDIINWMMIPLCLETVRCLEDGIVETAAEADMGLVYGIGFPLFRGGALRYIDSIGVAEFVALADQYAELGALYHPTAKLREMAKNGQSFFG | soluble |
| DKIIMDPHAVLGPVDPQLGQYPAPSIVRAVEKKGVDKVDDQTLILADVAEKAIRQVRDFIFNLLKDKYGEEKAKELAQVLTEGRWTHDYPITVEEAKKLGLNVSTDVPEEVYALMELYKQPIRQRGTVEFVPYPMKQEGK | not soluble |
| MGSDKIHHHHHHMTVVEPNSDQKLDTAVATVLHEISSFQSFAVERDLEDVIERISKVFRISDIDAFRYYINKSISGLGKIYPLFNLEEVKEIDVNGYDEPVIVKLSDDNYYTTNIKLLANEVDSIAIRLAQLMGKKISTSDPLARGTLNNREVSITFGTEISPKGSSIRIARNDSGYDLKKFVESNGFSLESISYLKIAIENSKSIVIIGPHTELKYSALLFLMDLVDKEKKITYIGEKIPSRSPGNYIFMKTKEKSIFSSQIDRVSLINTAMRQRPDYIVIDTIEVVDLPSVIQAITTGHPTFTSIDIDSVSALVSAFSDSALDLGRDMVSVIDIVIEISESSDRISSIYEFDRFEHNDVLYDLVFSIDKTTEKLRYNGFSPMFRSMSNAMGKDDFHRYLENVRKITSELIENGLS | not soluble |
| MLGAMSLRLSEFRETNLLDKILFGVLSPHEIRQLAKVTVVRGDLYEADGTPVSGGLRDPHFGAIEPGERCPVCGNSREECPGHFGKIELARPVLIPHYTDYVYKILQATCRVCGRITLPEEKIKYYRLIFRRLRGKWPQLAKTFATMVVKEAAQATQCPHCGKPQYKVVYIRPFHFYEKKPEGDVKLTPSEIRERLEKTGSEIEILGVHPERSRPEWMVATVLIVPPLAVRPSITLETGLRSEDDLTHALAEIVRQNEKLRNVIVTNAPETLIEENWMVLQEMVAAYIDNELPGARRLTHRRKRYLKTLAQRLKGKDGRIRGNLSGKRVNYSARTVISPDPYISINEVGVPEEIAKTLTIAMRVTPYNLEEARRYVLNGPDKWPGALFVYKASERKKYDLRFFKDYEKLAESLEPGDVVERHLINGDIVLFNRQPSLHRMSIMGHIVRVMPGKTFRLNLLVCPPYNADFDGDEMNLHVPRLEEAQAEAREIMLVEKHILTPRYGGPIIGGRQDYVSGAYLLTVKTRLFTKEEVERLLSVAGYKGDLPEPAILKPEPLWTGKQLASIFLPEDLSFKGKSKTNAGDLACSDELCLHDSYIVITNGKLLEGVLDKKAIGAEEPNNLLHIIALEYGNSKARQLLDSFYRMFIRMLELRGLTISLHDIDLPDRAKQEIEELIREYKGRVYSIIEEYRKGTLEPIPGRSLEESLEIKIMEVLDELRKRVQEVASNNLDPFNDVFVMARTGARGSDVNISQMAAMLGQQAVRGRRIRRGLRNRVLAHFKENDIEPEAWGFVRSSFRKGLRPTEVFFHAAAGREGLVDTAVKTSQSGYMQRRLINALQDIVVTYDGTVRDLYGNLIQLKYGEDGVDPMKTYHGKPVDVKRIIQRVKASKAETV | soluble |
| MNKKVGESTLYEWLVSYQKLEQEIYYLDWELETYKKELERWCDPEDLGRYTLTKDSKASKLEDIIEDLEKRLAWKMNSIYDLRKLVYSFKGLDQKILVAKYIEGLSLKQIAGEFGHSYGYIRNKHNQILKKIEKSDNDVTIPIDKS | not soluble |
| DYIVEKLNMTKMYDIFSQYLPPQVFINDDSVVHLVRNSIYYKKMRGKHDLVILAGDFQGTTQEAQYELSYQVLQIAKEIGVSMIYTLGGYSIGKIVDKPRVLGAVTDKNLVADLEKNGVVFPKGE | not soluble |
| MGSDKIHHHHHHMDAKTIIENRFQSQKLIQTAWSDSPERIVFHFGAMQSQNYGQSLWAVGSRMTTPSEESVEQAINNGEIIRTWLLRGTIHLFSAKDYHWMMDLIAPTIDKICKPYRAKLGLTDEVLHKATEVVSEIVSEQAVTRKDLAAHLATKDLPSAGIPFAQLLVYLSSRKVICSGPNETFRNTMHIPADTNHFTREEAIKELAKRYIQSHAPATLKDFCFWSGLTVTDAKIGLADMPKMGDYYITTLVENGTMPTTIPLAGFDEWIIGYRDRSVVLPEIWHDEIMTKNGIFRPAIITEGKVVGKWEKPKKRAELDGDFWDRYIQFRNML | not soluble |
| SNPSSSGGTTKRFRTKFTAEQKEKMLAFAERLGWRIQKHDDVAVEQFCAETGVRRQVLKIWMHNNKN | soluble |
| MSDSDSVGESSHPKKTAPKKEKASPKNKKDDANESMVMTEEDRNVFTSIDKKGGGSKQMAIVDIYQKKSQLEHILLRPDSYIGSIEHTEKKPMWVYNMEDSKLEQRDISYVPGLFKIYDEILVNAADNKQRDRKMNTIRVTINKAKNEISVYNNGKGIPVTQHKVEKVFVPELIFGSLLTSSNFVGNQKAMIGGRNGYGAKLCNIFSTKFTCETSSRVYKSAFKQTWINNMTRDEEPTIVPSTDEDFTKITFSPDLAKFKMKELDDDICHLMARRAYDVAATCKGVDVILNGEMISVKGFEDYVKMYTSQITFEGEPLKTVYEQIGNRWQVALALSDVGFQQISFANNVSTTKGGRHVDHVVDQMIARLKGSIKQELSKDVDPFMIENHLWVFVNCLIEWPTFDSQTKEMMTLRHDRFGSTCALSKKFCKTALQIGLIRQISREIGVDIRENLVQKASESSPIKCIPKLEDAKEAGTKTSERCTLIVTEGDSAKTLAISGLSVVGRDKFGVFPLRGKLLNVRDASVKQIAENAEVNAMIKILGLQRDLKYEFDDEFRTLRYGKLMIMADQDQDGSHIKGLIISFLHHFWPSLIQRNFVEEFITPIVKATKGKEEVSFYSLPEYSEWRTNTDNWKSYKIKYYKGLGTSTAKEAKE | not soluble |
| MGSDKIHHHHHHSCEKDPDLSKLDNNFTVYTNYDSKTNFNDFKTYCLPDSILLIGQGMKAEFWKDENAQEIIKQVADEMDTRGYTRVKVIKNANIGLQLSFTRQTTQIIGTGGWYGGGWYNGWWGPGYWGPYWNDWYYPYPVTYSYNTGTLIMEMVNLTDHPEDTSQKVKLPVIWHSYATGLLFENSKYNMQLTLDAVNQAFDQSPYIKKS | not soluble |
